Test results: US20180236071A1 (ACTICOR BIOTECH, published 2018)
Residue numbers refer to the chain shown, from its start.

T1: Soluble GPVI-Fc (human, UniProt Q9HCN6 21-269)
T1 construct: also called soluble human GPVI
T1 chain: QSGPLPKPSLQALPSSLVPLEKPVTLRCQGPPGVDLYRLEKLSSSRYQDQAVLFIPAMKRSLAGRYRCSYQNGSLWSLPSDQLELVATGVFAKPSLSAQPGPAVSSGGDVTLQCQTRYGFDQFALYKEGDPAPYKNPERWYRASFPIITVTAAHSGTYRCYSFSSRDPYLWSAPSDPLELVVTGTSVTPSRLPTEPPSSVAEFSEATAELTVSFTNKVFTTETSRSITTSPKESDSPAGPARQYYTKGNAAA

T2: human Glycoprotein VI (GPVI) on platelets (human, UniProt Q9HCN6 21-339)
T2 chain: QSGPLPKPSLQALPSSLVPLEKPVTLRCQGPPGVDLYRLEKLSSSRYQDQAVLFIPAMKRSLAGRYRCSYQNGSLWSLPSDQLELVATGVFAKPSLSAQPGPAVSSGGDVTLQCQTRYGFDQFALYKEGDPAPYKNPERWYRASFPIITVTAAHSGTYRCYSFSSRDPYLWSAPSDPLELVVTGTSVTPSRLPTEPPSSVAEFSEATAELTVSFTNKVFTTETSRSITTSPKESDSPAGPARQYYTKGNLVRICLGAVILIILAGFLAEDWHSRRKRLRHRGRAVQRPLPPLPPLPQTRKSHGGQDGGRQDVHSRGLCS

T3: murine GPVI (mouse, UniProt P0C191 22-265, limits assumed)
T3 construct: also called mouse GPVI
T3 sequence (looked up): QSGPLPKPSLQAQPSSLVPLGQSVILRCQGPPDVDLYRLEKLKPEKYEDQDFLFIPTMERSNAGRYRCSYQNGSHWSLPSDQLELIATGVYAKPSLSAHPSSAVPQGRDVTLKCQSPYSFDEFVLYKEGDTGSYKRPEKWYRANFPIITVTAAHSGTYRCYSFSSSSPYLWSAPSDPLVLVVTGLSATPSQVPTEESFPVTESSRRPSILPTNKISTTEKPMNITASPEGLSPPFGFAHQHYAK

B1: ACT006 antibody (humanized Fab fragment) (Fab, V domains shown)
VH: QVQLVQSGAEVKKPGASVKVSCKASGYTFTSYNMHWVRQAPGQGLEWMGGIYPGNGDTSYNQKFQGRVTMTRDTSTSTVYMELSSLRSEDTAVYYCARGTVVGDWYFDVWGQGTLVTVSS
VL: DIQMTQSPSSLSASVGDRVTITCSASQSLENSNGNTYLNWYQQKPGKAPKLLIYRVSNRFSGVPSRFSGSGSGTDFTLTISSLQPEDFATYYCLQLTHVPWTFGQGTKVEIKR
B2: ACT017 antibody (humanized Fab fragment) (Fab, V domains shown)
VH: B1 VH
VL: B1 VL with S24R, A25S, L78F, F88I, K112T
notes: Coupled to Alexa488 for the flow cytometry assay; also called ACT17; humanized Fab ACT017

Columns and labels:
Soluble GPVI-Fc = target: T1, Soluble GPVI-Fc; assay: SPR, BIAcore 2000, GPVI-Fc immobilised, Fab in flow, PBS pH 7.4
Procedure: Soluble GPVI-Fc (produced as described in Example 2) was immobilized in acetate buffer 10 mM pH 6 at a dose ranging from 960 to 1071 RU (corresponding about 6.4 to 7.15 fmol/mm²) onto a Carboxy-Methyl Dextran CMS sensor chip using the amine coupling method (Wizard procedure). The protein is then passed over the immobilized GPVI-Fc in PBS pH 7.4 (10 mM phosphate, 138 mM NaCl, 2.7 mM KCl, pH 7.42 at 25.4° C.) at a flow rate of 20 μL/min at 25° C. Kinetic constants (KA, KD, kₒₙ, koff) and affinity are determined using BIAevaluation version 3.0 software, by fitting data to binding model. PBS pH 7.4 is the running buffer.

[1] = target: T2, human Glycoprotein VI (GPVI) on …; assay: cell-based or functional assay
murine GPVI = target: T3, murine GPVI; assay: not described

Binder	Ka (Soluble GPVI-Fc) [M⁻¹]	Kd (Soluble GPVI-Fc) [nM]	koff (Soluble GPVI-Fc) [s⁻¹]	kon (Soluble GPVI-Fc) [M⁻¹ s⁻¹]	mean IC50, intensity of collagen-induced platelet aggregation [1] [µg/mL]	mean IC50, velocity of collagen-induced platelet aggregation [1] [µg/mL]	binding result (murine GPVI)
B1	1.4e+08	7.3	0.000476	66500			
B2	2.57e+08	4.1	0.000232	59700	3.2	2	no binding
